# Results from patent US6933284 (University of California, dated 2005).
# Legend:
# [1] = target: T1, recombinant control LDL (human apo-B100 with leucine in place of glutamine at position 2153) (human, UniProt P04114 28-4563); experiment: summary table, proteoglycan binding (biglycan and versican were the proteoglycans tested)
# T1 construct: mature; one apo-B100 per particle, with lipid; also called wild-type recombinant LDL; 'Leu-Leu' apo-B100 LDL
# [2] = target: T2, recombinant control LDL without the 'Leu-Leu' mutation (LDL generated by the unmodified apo-B100 P1 … (human, UniProt P04114 28-4563)); experiment: gel-mobility shift, data not shown
# T2 construct: mature; Tested as an LDL particle
# Experimental: (§1) Before the assay, the (^35S)biglycan and (^35S)versican preparations were dialyzed extensively at 4° C. against 10 mM HEPES, 150 mM NaCl, 5 mM CaCl_2, and 2 mM MgCl_2 (pH 7.4, Buffer A), and the protein concentrations were determined (BioRad Laboratories) with bovine gamma globulin as the standard. Increasing concentrations of LDL were incubated with approximately 2000 dpm of (^35S)biglycan or (^35S)versican for 1 h at 37° C. in a total volume of 20 μl of Buffer A. Three microliters of bromophenol blue:glycerol (1:1, v/v) was added to the samples, and 20 μl was loaded into wells of 0.7% NuSieve (FMC BioProducts) agarose gels prepared on Gel-Bond film (FMC BioProducts). Electrophoresis was run for 3 h at 60V with recirculating buffer (10 mM HEPES, 2 mM CaCl_2, 4 mM MgCl_2 pH 7.2) in a cold room. Gels were fixed with 0.1% cetyl pyridium chloride in 70% ethanol for 90 min, air-dried, and exposed to Hyper Film-MP (Amersham Life Sciences) at ^-70° C. The (^35S)biglycan or (^35S)versican complexed to LDL appears as a band at the […] with a Hewlett Packard Scan Jet II cx and ImageQuant software (Molecular Dynamics).
# This procedure has the advantages that only microgram quantities of lipoproteins are required and the relative affinity of LDL binding to the proteoglycans can be determined at physiological ionic and pH conditions. […]
# [3] = target: T3, RK3359-3369SA LDL (recombinant LDL, human apo-B100 with the arginines of Site B changed to serines and the … (human, UniProt P04114 28-4563)); experiment: gel-mobility shift, three independent experiments
# T3 construct: mature; Tested as a purified LDL particle from transgenic mouse plasma; Q2153L follows from the statement that R3500Q is the only LDL without the 'Leu-Leu' mutation; also called recombinant LDL with the uncharged Site B
# Experimental: as §1, with “The interaction between LDL and biglycan or versican was investigated by a gel-mobility shift assay (Camejo, G. et al. 1993. *J. Biol Chem.* 268:14131–14137). Before” for “Before”
# (§2) This procedure has the advantages that only microgram quantities of lipoproteins are required and the relative affinity of LDL binding to the proteoglycans can be determined at physiological ionic and pH conditions. […] Of particular interest was that recombinant K3363E LDL interacted defectively with both versican and biglycan but had normal receptor binding.
# [4] = target: T4, K3363E LDL (recombinant LDL, human apo-B100 with glutamic acid for lysine at residue 3363) (human, UniProt P04114 28-4563); experiment: gel-mobility shift, three independent experiments
# T4 construct: mature; Tested as a purified LDL particle from transgenic mouse plasma
# Experimental: as §1, with “The interaction between LDL and biglycan or versican was investigated by a gel-mobility shift assay (Camejo, G. et al. 1993. *J. Biol Chem.* 268:14131–14137). Before” for “Before”
# as §2
# human plasma LDL = target: T5, human plasma LDL (human, UniProt P04114 28-4563, 125I-labeled where used as tracer in the receptor assay); experiment: gel-mobility shift, three independent experiments
# T5 construct: mature; Native LDL particle; also called normal human plasma LDL
# Experimental: as §1, with “The interaction between LDL and biglycan or versican was investigated by a gel-mobility shift assay (Camejo, G. et al. 1993. *J. Biol Chem.* 268:14131–14137). Before” for “Before”
# as §2
# [5] = target: T4, K3363E LDL (recombinant LDL, human …); experiment: summary table, LDL receptor binding
# [6] = target: T1, recombinant control LDL (human apo-B100 …); experiment: summary table, LDL receptor binding
# [7] = target: T2, recombinant control LDL without the …; experiment: receptor-binding activity, details not given
binding result [1],binding result [2],binding result [3],binding result [4],binding result (human plasma LDL),binding result [5],binding result [6],binding result [7],Binder
binds,binds,binds,binds,binds,,,,"(35S)biglycan from cultured human arterial smooth muscle cells (other, UniProt P21810 38-368, looked up, glycosaminoglycan chains metabolically labeled with (35S)SO4, Proteoglycan: core protein with glycosaminoglycan chains; also called pool 3) DEEASGADTSGVLDPDSVTPTYSAMCPFGCHCHLRVVQCSDLGLKSVPKEISPDTTLLDLQNNDISELRKDDFKGLQHLYALVLVNNKISKIHEKAFSPLRKLQKLYISKNHLVEIPPNLPSSLVELRIHDNRIRKVPKGVFSGLRNMNCIEMGGNPLENSGFEPGAFDGLKLNYLRISEAKLTGIPKDLPETLNELHLDHNKIQAIELEDLLRYSKLYRLGLGHNQIRMIENGSLSFLPTLRELHLDNNKLARVPSGLPDLKLLQVVYLHSNNITKVGVNDFCPMGFGVKRAYYNGISLFNNPVPYWEVQPATFRCVTDRLAIQFGNYKK"
,,,,,binds,binds,binds,"LDL receptor on normal human fibroblasts (receptor, whole, on cells; also called LDL receptors) not shown"
